Tested on: NCCCNCCCCNCCCN
Assay: colorimetric DTNB SSAT assay
Format: biochemical, Homo sapiens
Details: 0.25 mM AcCoA, pH 7.5, 37 °C

SAT1 (Homo sapiens) was tested. Which Km did it give?
Its Km is 73.10 ± 8.328 µM.
